Test results published in publication PMC3220268.

Assays:
actin filaments = actin filaments (UniProt P68135); assay: co-sedimentation; actin co-sedimentation (pelleting) of rArp2/3 complex with actin filaments, as described in ref. 46
[1] = biological target: gelsolin-capped actin filaments (UniProt P68135); assay: pointed end capping assay (elongation from gelsolin-capped actin filaments); gelsolin-capped actin filaments (100 nM), 4 µM actin with pyrene-labeled actin; slowing of pointed end elongation by rArp2/3 complex

| Kd (actin filaments) [nM] | fold decrease in affinity against WT [1] [fold] | Substance |
| --- | --- | --- |
| 1500 |  | recombinant Arp2/3 complex with ARPC4 R105A and R106A mutations (from UniProt P61158 1-418; P61160 1-394; O15143 1-372; O15144 1-300; O15145 1-178; P59998 1-168; O15511 1-151) |
|  | 8 | recombinant Arp2/3 complex with Arp2 T237A, T238A, and Y202A mutations (from UniProt P61158 1-418; P61160 1-394; O15143 1-372; O15144 1-300; O15145 1-178; P59998 1-168; O15511 1-151) |
